Target: T1, SERA5 catalytic domain (SERA5 C) (Plasmodium falciparum 3D7, UniProt Q9TY95 578-828)
T1 construct: Plasmodium falciparum 3D7 serine repeat antigen 5 (SERA5), PlasmoDB PFB0340c, 251-residue enzyme (catalytic) domain E578 to N828, amplified from cDNA; Cloned in pProExHTb between BamHI and XhoI with N-terminal hexahistidine tag; no tag removal is described; also called enzyme domain
T1 sequence: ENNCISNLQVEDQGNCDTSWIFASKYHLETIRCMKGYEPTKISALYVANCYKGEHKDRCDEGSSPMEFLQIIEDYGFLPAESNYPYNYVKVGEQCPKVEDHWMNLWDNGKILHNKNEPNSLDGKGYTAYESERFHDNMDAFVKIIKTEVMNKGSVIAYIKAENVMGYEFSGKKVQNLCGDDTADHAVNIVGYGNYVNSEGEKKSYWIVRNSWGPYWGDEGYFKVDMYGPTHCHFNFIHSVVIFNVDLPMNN
Test: CD spectroscopy; CD spectra of SERA5 C (5 uM) in PBS pH 7.4 alone and with 5 uM peptide (1:1 molar ratio), 25 C
Details: both partners purified

B1: heptapeptide DNSDNMF (D560 to F566 of SERA5 sequence) (peptide)
peptide: DNSDNMF
notes: C-terminal region of the prodomain of Plasmodium falciparum serine repeat antigen 5 (SERA5), residues D560 to F566; Made on Rink amide resin, so the C-terminus is probably an amide; also called the heptapeptide; the peptide; source: synthetic peptide (solid phase, Fmoc chemistry, Rink Amide MHBA resin; RP-HPLC purified)
Question: Does B1 bind?
Answer: binds

— publication PMC3265493, “Inhibitory Potential of Prodomain of Plasmodium falciparum Protease Serine Repeat Antigen 5 for Asexual Blood Stages of Parasite” (PLoS ONE, 2012)
